Source: patent US20040009530A1 (ZYOMYX, published 2004)

B1: engineered chaperonin protein SP4-5 (designed binder)
chain: DDDRIPASGIVIARPGESAFMPDVVKNAKIALIDSALEIKKTEIEAKVQISDPSKIQDFLNQETNTFKQMVEKIKKSGANVVLCNGDQADVAYDYLAKEGIYAVHFVDESDMEKLAKATGAKIVTDLDDLTPSVLGEAETVEERKYTEGVPTYVMGCKGSVSHHHHHHSEQKLISEEDLLRLE
notes: also called engineered protein clone SP4-5; not shown: FLAG-tag from the expression vector upstream of the insertion site
B2: engineered chaperonin protein SP4-2 (designed binder)
chain: DDDRIPASGIVIVGHNKVPSMPRVVKNAKIALIDSALEIKKTEIEAKVQISDPSKIQDFLNQETNTFKQMVEKIKKSGANVVLCGYKNLTVAYEYLAKEGIYAVYHVDESDMEKLAKATGAKIVTDLDDLTPSVLGEAETVEERGTANAPATYVMGCKGSVSHHHHHHSEQKLISEEDLLRLE
notes: not shown: FLAG-tag from the expression vector upstream of the insertion site
B3: engineered chaperonin protein SP4-1 (designed binder)
chain: DDDRIPASGIVIDRVGRDSNMPHVVKNAKIALIDSALEIKKTEIEAKVQISDPSKIQDFLNQETNTFKQMVEKIKKSGANVVLCADDYAHVAYDYLAKEGIYAVGYVTESDMEKLAKATGAKIVTDLDDLTPSVLGEAETVEERPWGNNKETYVMGCKGSVSHHHHHHSEQKLISEEDLLRLE
notes: Protein-level screening was 'similar to that for the HP6054 selections', that is, with a FLAG-tag vector and anti-FLAG-HRP detection; not shown: FLAG-tag from the expression vector upstream of the insertion site
B4: engineered rubredoxin protein D7 (designed binder)
chain: MAKWVCKICGYIYDEDAGEDPGHRSRYISPGTKFEELTTGWTCPICRCTNSTTSTNCFEKLED
notes: Engineered Pyrococcus furiosus rubredoxin; No tags are stated for the assayed construct
B5: engineered rubredoxin protein G3 (designed binder)
chain: MAKWVCKICGYIYDEDAGFVEYYGHPNISPGTKFEELSRYVDGWTCPICSYGMPIFEKLED
notes: Engineered Pyrococcus furiosus rubredoxin
B6: engineered rubredoxin protein F3 (designed binder)
chain: MAKWVCKICGYIYDEDAGFVEYYDDGVISPGTKFEELHTAWTCPICSCTYNPFEKLED
notes: as for B4

target: T1, human chorionic gonadotropin (human, UniProt P01215 25-116; P0DN86 21-165, biotinylated using an NHS-SS-biotin reagent (sites not given)); test: affinity ELISA, hCG immobilized, serial dilution of engineered protein
T1 construct: The target was biotinylated and immobilized on Neutravidin- or Streptavidin-coated strip plates; also called hCG
From the text: A total of 192 plaques were screened from the PEG precipitated and non-PEG precipitated eluted phage of round three (FIG. 9). Screening at the phage and protein level was similar to that for the HP6054 selections. The screen identified three engineered chaperonin proteins that were solubly expressed in E. coli and could bind hCG. Both the PEG-precipitated and non-PEG-precipitated selections gave similar results. In these affinity ELISA assays, the engineered chaperonin was serially diluted and the ELISA signal was plotted as a function of engineered chaperonin concentration to determine EC₅₀s, as above. The following EC₅₀ values for the three engineered library proteins was measured: […]

T1 sequence (P01215 25-116, chain 1 of 2, other chains not shown): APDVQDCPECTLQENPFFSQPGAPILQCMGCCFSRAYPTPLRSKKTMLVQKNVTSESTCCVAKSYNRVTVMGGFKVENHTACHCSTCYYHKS

Binder	EC50
B1	630 nM
B2	48000 nM
B3	5400 nM

target: T1, human chorionic gonadotropin; test: affinity ELISA, hCG immobilized, serial dilution of engineered rubredoxin
From the text: The method used to identify engineered rubredoxin proteins that bind to human chorionic gonadotropin (hCG) were the same as the method used to identify chaperonin proteins that bind to hCG described in Section 6.9.6, above. The method identified three engineered rubredoxin proteins that could bind hCG. In the affinity ELISA assays, the engineered rubredoxin was serially diluted and the ELISA signal was plotted as a function of engineered rubredoxin concentration to determine EC₅₀s, as above. The following EC₅₀ values for the three library proteins was measured: […]

Binder	EC50
B4	4000 nM
B5	81 nM
B6	35 nM
